B1: RWB12 (VHH)
VHH: QVQLVESGGGSVQVGGSLRLSCAASGFTYNSYSVGWFRQAPGKEREGVAAINSGGSSTYYAASVKGRFTISRDNAKNTVYLQMNSLKPEDTAMYYCAARSPSPLTFQTRTLREDSYNYWGQGTQVTVSS
notes: Camel VHH; tag not described; also called camel antibody RWB12
B2: RWG8 (VHH)
VHH: DVQLVESGGGLVQPGGSLRLSCAASGFTFSRYWMGWFRQAPGKGVEWVSTINSGGGSTYYADSVKGRFTISRDNAKNTLYLQLNNLKTEDTAMYYCAKEQWRTGSRGQGTQVTVSS
notes: Camel VHH; tag not described; also called camel antibody RWG8
B3: RWC4 (VHH)
VHH: EVQLVESGGGSVQAGGSLRLSCVASEDSTSAMCMGWFRQAPGKEREGVACINPTGEVTWYGDSVKGRFTISRDTVKKIVYLQMNSLKPEDTAMYYCAARVTYGGDWSTDTDYEYWGQGTQVTVSS
notes: Camel VHH; tag not described; also called camel antibody RWC4
B4: RWG4 (VHH)
VHH: QVQLVQSGGGLVQPGGSLRLSCAASGFTFSVYWFYWVRQAPRQGLEWVSTIASNGSTYYSDSVKGRFTISRDNAKNTVYLQMNSLKPEDTAVYYCVSDPDYYSDYERAYKFWAQGTQVTVSS
notes: Camel VHH; tag not described; also called camel antibody RWG4

Target: T1, B7H3 peptide 11 (human)
T1 peptide: SFTCFVSIRDFGSAAVSL
Experiment: peptide ELISA (OD450), 18-mer peptides of human B7H3
Excerpt: (§1) FIGS. 21A-21C: G8 cross-reacts with mouse B7H3 and kills mouse cancer cells. (FIG. 21A) Binding activity of anti-B7H3 nanobodies to mouse antigen detected by flow cytometry. […] (FIG. 21C). […] A total of 48 peptides from the human B7H3 protein were designed and synthesized. Each peptide consisted of 18 amino acids and overlapped with adjacent peptides by 9 amino acids. ELISA technology was used to test binding ability of antibody to each peptide. Number indicates the OD₄₅₀ value. […] The peptide sequences are shown below the table. C4 and B12 may have a conformational epitope that couldn't be predicted by a linearized peptide library.
(§2) A total of 48 peptides from the human B7H3 protein were designed and synthesized. Each peptide consisted of 18 amino acids and overlapped with adjacent peptides by 9 amino acids. ELISA technology was used to test binding ability of the antibodies to each peptide (FIG. 21C). […] C4 and B12 may have a conformational epitope that couldn't be predicted by a linearized peptide library.
B1: no binding. B2: binds. B3: no binding.

Target: T2, B7H3 peptide 10 (human)
T2 peptide: QRVRVADEGSFTCFVSIR
Experiment: as above
Excerpt: as §1, §2
B1: no binding. B2: binds. B3: no binding.

Target: T3, B7H3 peptide 15 (human)
T3 peptide: LRPGDTVTITCSSYQGYP
Experiment: as above
Excerpt: as §1, §2
B1: no binding. B2: binds. B3: no binding.

These binders were tested against B7H3 R&D (assay: ELISA; row B7H3 R&D; well 2 of 3).
Method in brief: (§3)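 The values are ELISA signals for binding of purified camel VHH nanobodies to immobilised recombinant B7H3 fusion proteins and to non-B7H3 comparison proteins. The nanobodies came from phage panning on recombinant B7H3-Fc.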
For B1, the “ELISA reading (name not given)” value was 0.0559. For B2, the “ELISA reading (name not given)” value was 0.0632. With B3 the “ELISA reading (name not given)” value was 0.151.

These binders were tested against T4, human B7H3 (human, UniProt Q5ZPR3 29-466, limits assumed) (assay: ELISA; row Human; well 3 of 3).
T4 construct: also called human B7H3 protein
T4 sequence (looked up): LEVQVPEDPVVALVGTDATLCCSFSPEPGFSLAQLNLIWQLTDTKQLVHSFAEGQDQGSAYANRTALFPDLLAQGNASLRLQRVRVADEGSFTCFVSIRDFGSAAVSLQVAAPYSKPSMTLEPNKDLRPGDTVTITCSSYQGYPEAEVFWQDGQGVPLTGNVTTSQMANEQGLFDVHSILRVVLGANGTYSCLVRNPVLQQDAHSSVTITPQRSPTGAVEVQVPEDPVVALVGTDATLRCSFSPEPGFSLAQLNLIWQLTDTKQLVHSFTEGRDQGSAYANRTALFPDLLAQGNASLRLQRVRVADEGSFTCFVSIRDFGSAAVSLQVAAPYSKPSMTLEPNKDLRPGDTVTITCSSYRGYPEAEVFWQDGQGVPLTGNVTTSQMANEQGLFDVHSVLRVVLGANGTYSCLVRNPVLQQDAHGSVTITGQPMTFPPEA
Method in brief: as §3
B1 was tested, and the “ELISA reading (name not given)” value was 0.199. For B2, the “ELISA reading (name not given)” value was 0.164. With B3 the “ELISA reading (name not given)” value was 0.938.

What follows are binders tested against PD-L1 (assay: ELISA; row PDL1-Fc; well 3 of 3).
Chain of PD-L1 (Q9NZQ7 whole entry): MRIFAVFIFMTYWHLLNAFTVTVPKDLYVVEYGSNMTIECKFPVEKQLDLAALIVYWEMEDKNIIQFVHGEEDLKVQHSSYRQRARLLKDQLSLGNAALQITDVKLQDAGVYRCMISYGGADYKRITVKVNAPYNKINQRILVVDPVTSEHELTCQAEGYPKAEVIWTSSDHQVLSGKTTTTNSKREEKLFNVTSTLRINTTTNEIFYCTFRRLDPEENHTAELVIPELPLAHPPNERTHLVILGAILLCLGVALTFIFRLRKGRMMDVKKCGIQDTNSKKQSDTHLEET
Method in brief: as §3
In the case of B1, the “ELISA reading (name not given)” value is reported as 0.0624. With B2 the “ELISA reading (name not given)” value was 0.0999. B3 was tested, and the “ELISA reading (name not given)” value was 0.0613.

The binders below were run against T5, recombinant human B7H3-Fc protein (human, UniProt Q5ZPR3 29-466, limits assumed) (assay: ELISA, purified VHH).
T5 construct: 154 kDa non-reduced, 77 kDa reduced; also called hB7H3-Fc; not shown: Fc part
T5 sequence (looked up): T4 sequence (looked up)
Method in brief: as §3
B1 gave an ELISA signal of 0.568. For B2, the ELISA signal was 0.641. B3 was tested, and the ELISA signal was 2.02. With B4 the ELISA signal was 2.54.

Each binder was assayed against Non-relevant antigen (assay: ELISA, purified VHH).
Method in brief: as §3
Binder B1 has an ELISA signal of 0.0495. B2 gave an ELISA signal of 0.0562. Binder B3 has an ELISA signal of 0.0719. In the case of B4, the ELISA signal is reported as 0.0541.

Target: T6, monkey B7H3-His (monkey)
T6 chain: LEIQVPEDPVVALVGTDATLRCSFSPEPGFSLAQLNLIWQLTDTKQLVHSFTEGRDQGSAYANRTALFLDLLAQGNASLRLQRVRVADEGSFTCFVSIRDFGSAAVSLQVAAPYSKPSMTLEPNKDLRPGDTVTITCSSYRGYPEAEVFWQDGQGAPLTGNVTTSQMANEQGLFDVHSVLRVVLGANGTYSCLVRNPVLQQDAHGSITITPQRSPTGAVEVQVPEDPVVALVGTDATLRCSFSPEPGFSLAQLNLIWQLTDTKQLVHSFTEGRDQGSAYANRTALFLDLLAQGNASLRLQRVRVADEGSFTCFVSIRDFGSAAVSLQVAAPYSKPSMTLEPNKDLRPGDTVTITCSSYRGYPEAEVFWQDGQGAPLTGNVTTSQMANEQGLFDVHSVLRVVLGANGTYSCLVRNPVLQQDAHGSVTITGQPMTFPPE
Experiment: ELISA, purified VHH
Method in brief: as §3
Work on B1 yielded an ELISA signal of 0.164. For B2, the ELISA signal was 0.117. Work on B3 yielded an ELISA signal of 0.288. Binder B4 has an ELISA signal of 1.81.

The binders below were run against T7, hB7H3-His (human, UniProt Q5ZPR3 29-461, limits assumed) (assay: ELISA, purified VHH).
T7 construct: not shown: His tag
T7 sequence (looked up): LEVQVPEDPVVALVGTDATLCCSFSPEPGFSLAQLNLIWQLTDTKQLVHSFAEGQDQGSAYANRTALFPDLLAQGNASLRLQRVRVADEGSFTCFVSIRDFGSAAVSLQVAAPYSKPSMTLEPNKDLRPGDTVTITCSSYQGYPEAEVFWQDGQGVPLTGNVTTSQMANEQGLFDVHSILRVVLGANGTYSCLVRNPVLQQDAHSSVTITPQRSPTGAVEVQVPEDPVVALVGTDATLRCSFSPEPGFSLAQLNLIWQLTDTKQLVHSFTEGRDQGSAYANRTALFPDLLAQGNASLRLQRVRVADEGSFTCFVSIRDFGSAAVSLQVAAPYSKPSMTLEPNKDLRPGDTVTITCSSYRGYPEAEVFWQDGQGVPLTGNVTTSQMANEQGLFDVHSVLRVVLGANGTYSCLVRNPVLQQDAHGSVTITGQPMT
Method in brief: as §3
B1 showed an ELISA signal of 0.686. With B2 the ELISA signal was 1.04. Binder B3 has an ELISA signal of 2.44. With B4 the ELISA signal was 2.55.

These binders were tested against T8, rat B7H3-His (rat, UniProt Q7TPB4 29-244, limits assumed) (assay: ELISA, purified VHH).
T8 construct: not shown: His tag
T8 sequence (looked up): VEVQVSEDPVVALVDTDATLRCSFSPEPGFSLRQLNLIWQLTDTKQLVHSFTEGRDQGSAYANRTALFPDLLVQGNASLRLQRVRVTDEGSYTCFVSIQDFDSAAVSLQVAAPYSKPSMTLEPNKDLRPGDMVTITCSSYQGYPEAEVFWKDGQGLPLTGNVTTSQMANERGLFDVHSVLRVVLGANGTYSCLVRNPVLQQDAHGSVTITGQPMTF
Method in brief: as §3
B1 gave an ELISA signal of 0.0574. B2 showed an ELISA signal of 0.0696. Binder B4 has an ELISA signal of 1.5.

These binders were tested against T9, Irrelevant antigen (assay: ELISA; row Irrelevant antigen; well 2 of 3).
T9 construct: negative control
Method in brief: as §3
With B1 the “ELISA reading (name not given)” value was 0.0864. In the case of B2, the “ELISA reading (name not given)” value is reported as 0.098. For B3, the “ELISA reading (name not given)” value was 0.0888.

What follows are binders tested against T4, human B7H3 (assay: ELISA; row Human; well 2 of 3).
Method in brief: as §3
With B1 the “ELISA reading (name not given)” value was 0.21. For B2, the “ELISA reading (name not given)” value was 0.147. For B3, the “ELISA reading (name not given)” value was 0.979.

Each binder was assayed against T9, Irrelevant antigen (assay: ELISA; row Irrelevant antigen; well 3 of 3).
Method in brief: as §3
For B1, the “ELISA reading (name not given)” value was 0.0853. With B2 the “ELISA reading (name not given)” value was 0.114. With B3 the “ELISA reading (name not given)” value was 0.102.

— patent US20220380471A1 (US Dept. of Health and Human Services, published 2022)
